Experiment [1] deals with rat bone PTH/PTHrP receptor clone R15B (rat). The experiment is described as follows: apparent Kd, competitive radioreceptor assay on COS-7 cells expressing the rat bone receptor (FIG. 17).
For experiment [2] the target is unchanged. The experiment in a line: radioreceptor assay, radiolabelled ligand (~200,000 cpm) on COS-7 cells expressing R15B.
Experiment [3] deals with human kidney PTH/PTHrP receptor (full-length cDNA HKrk) (human). The experiment in a line: apparent Kd, competitive radioreceptor assay on COS-7 cells expressing the human receptor (FIG. 17).
Experiment [4] shares this target. The experiment is described as follows: radioreceptor assay, radiolabelled ligand (~200,000 cpm) on COS-7 cells expressing the human receptor.
Experiment [5] deals with opossum kidney PTH/PTHrP receptor clone OK-H (opossum). The experiment is described as follows: cell-based or functional assay.
The target of experiment [6] is human kidney PTH/PTHrP receptor (full-length cDNA HKrk) (human). The experiment in a line: competitive radioreceptor assay on COS-7 cells; human receptor against rat bone receptor.
Experiment [7] shares this target. The experiment is described as follows: competitive radioreceptor assay on COS-7 cells; HKrK against R15B.
Experiment [8] deals with rat bone PTH/PTHrP receptor clone R15B (rat). The experiment is described as follows: affinity from competitive radioreceptor assay on COS-7 cells expressing R15B.
For experiment [9], the target named is human kidney PTH/PTHrP receptor (full-length cDNA HKrk) (human). The experiment in a line: affinity from competitive radioreceptor assay on COS-7 cells expressing HKrK.
For experiment [10] the target is unchanged. The experiment in a line: affinity from competitive radioreceptor assay on COS-7 cells expressing HKrk.
Experiment [11] has the same target. The experiment in a line: competitive radioreceptor assay on COS-7 cells; human receptor against rat receptor.

In the case of “[Nle^8,18, Tyr^34]bPTH(1-34)amide (from UniProt P01268 32-65) (peptide)”, the figures for the Kd in experiment [1] and in [3] were 10 nM and 5 nM, respectively. Further, the results for the specific binding in experiment [2] and in experiment [4] were 8.1% and 10.1%, respectively. Moreover, the concentration of intracellular free calcium (Fura-2) in experiment [5] amounted to 39 nm. For the same substance, the fold difference in apparent Kd against the rat bone PTH/PTHrP receptor in experiment [6] came to 2 fold.
In experiment [7], “[Nle^8,18, Tyr^34]bPTH(3-34)amide (from UniProt P01268 34-65) (peptide)” gave a fold higher affinity against R15B of 7 fold. Also, the Kd came out at 45 nM in experiment [8] and 7 nM in experiment [9].
The matching figures for “[Nle^8,18, Tyr^34]bPTH(7-34)amide (from UniProt P01268 38-65) (peptide)”: 35 fold, 2000 nM and 60 nM.
With “[Tyr^36]PTHrP(1-36)amide (from UniProt P12272 37-72) (peptide)”, the results for the Kd in experiment [10] and in experiment [8] were 35 nM and 10 nM, respectively. Moreover, the specific binding is 7.1% in [2] and 7.6% in [4]. The fold lower affinity against the rat receptor in [11] was 2 to 4 fold.

For the origin of these results see patent publication US20030153041A1.
